According to the supplement of paper PMC9170038:

Legend:
MS2 coat protein = assay: apparent KD of MS2 coat protein; higher = weaker reporter binding; conditions: Eterna round: R107
Experimental: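 RNA-MaP round R107: designed RNA switches with theophylline, tryptophan, arginine or FMN aptamers are transcribed on-chip within common flanks. They are titrated with SNAP-549-labelled MS2 coat protein in RNA-MaP buffer (100 mM Tris pH 7.5, 80 mM KCl, 4 mM MgCl2), without ligand or with the indicated ligand. Median apparent KD per design.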

[1] = test system: K4 kissing-loop RNA reporter; assay: apparent KD of K4 kissing-loop reporter; higher = weaker reporter binding; conditions: Eterna round: R107;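 note: bound reporter read as fluorescence of individual clusters on recovered sequencing chips by microscopy, with normalized cluster intensities fitted with a binding model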
Experimental: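 RNA-MaP round R107: designed RNA switches with theophylline, tryptophan, arginine or FMN aptamers are transcribed on-chip within common flanks. They are titrated with a labelled K4 kissing-loop RNA reporter in RNA-MaP buffer (100 mM Tris pH 7.5, 80 mM KCl, 4 mM MgCl2), without ligand or with the indicated ligand. Median apparent KD per design.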

[2] = input ligand: theophylline 20 uM
[3] = input ligand: tryptophan 2.4 mM

Row | Sequence | apparent KD of MS2 coat protein (MS2 coat protein; input ligand: arginine 13.2 mM) [nM] | apparent KD of MS2 coat protein (MS2 coat protein; input ligand: none) [nM] | apparent KD of MS2 coat protein (MS2 coat protein; [2]) [nM] | apparent KD of MS2 coat protein (MS2 coat protein; input ligand: theophylline 2 mM) [nM] | apparent KD of MS2 coat protein (MS2 coat protein; [3]) [nM] | apparent KD of K4 kissing-loop reporter ([1]; input ligand: FMN 200 uM) [nM] | apparent KD of K4 kissing-loop reporter ([1]; input ligand: arginine 13.2 mM) [nM] | apparent KD of K4 kissing-loop reporter ([1]; input ligand: none) [nM] | apparent KD of K4 kissing-loop reporter [1, 2] [nM] | apparent KD of K4 kissing-loop reporter [1, 3] [nM]
1 | AAAAGAGGUGGAAGGAGCGGGAGACAUGAGGAUCACCCAUGUGAUGUGACGAAAGGGUCAGCCCAGGUAGGUCGCCAUGUCGAAA [yuyymullin] | 54.6 | 62.9 | 76.2 | 134 | 27.3 |  |  |  |  | 
2 | UGUAUGUGAUUUGAUACCAGACCAGCUGGUGGUACCUGAGUGAUGUUCGGGAUGGUCUGGGUCCCUUGGCAGCAAAUCGCAUACU [KL-SSTheoB21] |  |  |  |  |  | 295 | 175 | 254 | 212 | 212
3 | UGUAUGUGAUUUGAUACCAGACCAGCUGGUGGUGUAUGAGUGAUGUUCAUGCUGGUUUGGGUCCCUUGGCAGCAAAUCGCAUACU [KL-SSTheoB29] |  |  |  |  |  | 10.6 | 6.48 | 8.46 | 7.6 | 8.89
4 | UGUCAUUGGUCGGAUACCAGUUGAUGACGAAUACGUCAACUGGAGUGAUGUUCCUAAAACAACCCUUGGCAGCCGACCGAUGACU [MAT - Same State Theophlline B - Mod of Eli - D1] |  |  |  |  |  | 937 | 641 | 852 | 666 | 761
5 | UGUCAUUGGUCGGCCGCCACUACAAGGUCAAAGACCAAAGAGUGAUGUUCUUAGACGAAAGUCAGUAGGACCGGGACCGAUGACU [TrypBS 8 #SwitchBubble #K4Middle] |  |  |  |  |  | 1050 | 707 | 1320 | 674 | 274
6 | UGUCAUUGGUCGGCCGCCACUAGAAGGUCAAAGACCAUAGAGUGAUGUUCUGAGACGAAAGUCACUAGGACCGGGACCGAUGACU [TrypBS 6 #SwitchBubble #K4Middle] |  |  |  |  |  | 462 | 385 | 1140 | 440 | 786
7 | UGUCAUUGGUCGGCCGCCACUAGGACCGGGUUUUGCCUAGUGAUGUUAGUAUGAACGGCCGCCACUAGGACCGGGACCGAUGACU [KL-SSTryp-B26 #DoubleAptamer] |  |  |  |  |  | 468 | 279 | 473 | 377 | 105
8 | UGUCAUUGGUCGGCCGCCACUUCAUAAAAGAGUGAUGUUCUAAAGACGGAUCGAAAGAUCUGUCGAAGGACCGGGACCGAUGACU [TrypBS 19 #SwitchBubble #StaticStem] |  |  |  |  |  | 508 | 168 | 209 | 419 | 753
9 | UGUCAUUGGUCUGAUACCAGAAGAUAAUCUGGAGUGAUGUUCCAAGUACGACAAAGUCGCUUCCCUUGGCAGCAGACCGAUGACU [TheoBS 19 #SwitchBubble 13 #StaticStem] |  |  |  |  |  | 1040 | 759 | 1110 | 619 | 886
10 | UGUCAUUGGUCUGAUACCAGUUAGACCGAUAGGUCAAAACUGGAGUGAUGUUCCUAAAAUAACCCUUGGCAGCAGACCGAUGACU [TheoBS 2 #SwitchBubble #StaticStem] |  |  |  |  |  | 1380 | 601 | 1010 | 856 | 954
11 | UGUCUUUUUUUGAUGUUUUUUGUAUAAUGGCAGGAUAUCGUAGAUGCGAGAAGGGCUUUUAUGCGUUAUGAGUGAUGUUUGUAGG [vjjbvmullin] |  |  |  |  |  | 329 | 260 | 297 | 332 | 225
12 | UGUGAGCUGUCGACAAAAGUCGACUAAAACUAGGAUAUGACGAAAGUCAGAAGGAGUCAAUAAUGGAGUGAUGUUCCUGCUCACU [FmnA 9 U31+A55] |  |  |  |  |  | 277 | 367 | 414 | 386 | 331
13 | UGUGAUGUGUAGUGUAAUGUUUUGCGGGAUACCAGAGUCUUUUUAUUCCCUUGGCAGCUUGAGUGAUGUUUGAUGCUGUUCUUGU [llmdmullin] |  |  |  |  |  | 519 | 351 | 479 | 439 | 326
14 | UGUGAUGUGUAGUGUUAUGUUUUGAGGGAUACCAGAGUGUUUUUAUUCCCUUGGCAGCUUGAGUGAUGUUUGAUGUUGUUGUUGU [knnumullin] |  |  |  |  |  | 303 | 166 | 232 | 213 | 187
15 | UGUGGAGAAUAUGAUACCAGCAGUGAGAGAGAGGAAGUAUAGUGAUGUUAUAUGAGAGAAUGCCCUUGGCAGCAUAUGUAGAAGG [SSTheophylB.F] |  |  |  |  |  | 133 | 154 | 107 | 93.6 | 128
16 | UGUGUUGUUUUGAUGUUUGGUGUUGCAUGGCAGGAUAUCGUAGAGGCGAGAAGGGCUUGUGAGCGGUAUGAGUGAUGUUUGUAGG [bbgbmullin] |  |  |  |  |  | 433 | 270 | 406 | 400 | 299
17 | UGUGUUGUUUUGAUGUUUGGUGUUUGUUGGCAGGAUAUCGUAGAGGCGAGAAGGGCUUGGGAGCGGUAUGAGUGAUGUUUGUAGG [deedwrmullin] |  |  |  |  |  | 373 | 186 | 364 | 302 | 245
18 | UGUGUUUACCUGACUCAGUGAUGUUGAGAAGGAGCGUGCGAAAGCACAGGUAGGUCGCUCAACCUAAAAUUCAGGUGAGCACUAA [#SwitchBubble 11 #K4Early] |  |  |  |  |  | 366 | 202 | 267 | 263 | 213
19 | UUACCAAGUGAUGUUUGGAAAUAUCCUAGGCAGGAUAUGCGGAAACGCAGAAGGGCCACCUUCUAGUGAAGGAAACUUCGCUAUU [Ex FMN A 3] |  |  |  |  |  | 288 | 199 | 272 | 246 | 263
20 | UUAGAUCAAAGAUCAGUCUUAUUGAGAGAACGAGGACCGGUACGGCCGCCACUCGAGUGAUGUUCGAGAACUCUCUUGACAAAUU [AK1 EXC Tryptophan A] |  |  |  |  |  | 158 | 150 | 169 | 133 | 258
